Legend:
Type in all cases: biochemical
[1] = Separate analysis of β-xylosidase activity (NIMS); details: XB-F17 substrate, 1 h
Description: The separate characterization of β-glucosidase and β-xylosidase activity was carried out in reaction volumes of 20-50 μL, by mixing 0.1 mM cellobiose with 8 μg of NS50010 in 50 mM sodium acetate buffer (pH 4.8), or 0.1 mM xylobiose with 0.13 μg (in […]) or 0.33 μg (in 50 μL) of 1,4-β-D-xylosidase in 50 mM potassium phosphate buffer (pH 7.5) with 1 mg/mL BSA. For the competition studies with cellobiose, samples additionally contained 10, 25, or 50 mM of unlabeled cellobiose (Sigma-Aldrich; St. Louis, Mo.). Other buffers used for the determination of the pH optima were McIlvaine's citrate/phosphate buffer (pH 2.6 and 6.0), 50 mM Tris buffer (pH 9.0) for NS50010, and 50 mM potassium phosphate buffer (pH 6.0), 50 mM Tris buffer (pH 9.0), 50 mM sodium borate buffer (pH 11.0), all with 1 mg/mL BSA for the β-xylosidase. Samples were incubated for 1 h at 35° C. (β-xylosidase) or 50° C. […]
In FIG. 4a, the determined temperature optima for the used enzymes were 50-60° C. for β-glucosidase (black) and 35° C. for β-xylosidase (gray). In FIG. 4b, the determined pH optima were around pH 4.8 for β-glucosidase (black) and around pH 7.5 for β-xylosidase (gray). […]
(§1) In each case 0.5-1 μL per quenched reaction sample was spotted onto the NIMS surface and removed after an incubation of ˜30 s. […] Enzyme activities were determined by forming product-to-substrate ratios.

[2] = Multiplexed β-glucosidase/β-xylosidase assay with known enzymes, cellobiose substrate; details: equal amounts CB-F17 and XB-F17 (0.1 mM each), 1 h
Source text: (§2) It can be difficult to discriminate between several products in simultaneous reactions using conventional spectroscopic methods since these reactions typically yield the same outputs and there are only a few unique absorption or emission patterns that can be resolved separately. In contrast, mass spectrometry can resolve thousands of ions and therefore we have discovered that it is well-suited for the parallel detection of large numbers of reaction products where the substrates and occurring products differ in mass. This is the case, for example, when using pentose and hexose-based substrates at the same time. The hydrolysis of polysaccharides with identical masses (e.g. cellobiose and maltose) can even be analyzed in the same run by using different chemical structures in the linker or perfluorinated tags of varying length. Thus, potentially dozens of enzymatic conversions can be tested simultaneously using this method. Here both β-glucosidase and β-xylosidase activities were detected simultaneously utilizing a substrate cocktail comprised of equal amounts of CB-F17 and XB-F17. In the non-enzyme control only signals for cellobiose and xylobiose were detectable (FIG. 5a). […]
as §1

[3] = Multiplexed β-glucosidase/β-xylosidase assay with known enzymes, xylobiose substrate; details: equal amounts CB-F17 and XB-F17 (0.1 mM each), 1 h
Source text: as §2, §1

B1: β-xylosidase: 1,4-β-D-xylosidase from Bacillus pumilus purchased from Megazyme (protein, UniProt P07129 1-535, looked up)
Beta-xylosidase: MKITNPVLKGFNPDPSICRAGEDYYMAVSTFEWFPGVQIYHSKDLIHWRLAARPLQKTSQLDMKGNPDSGGVWAPCLSYADGQFWLIYSDIKVVDGPFKDGHNYLVTADAVDGEWSDPVRLNSSGFDPSLFHDPSGKKYVLNMLWDHREKHHSFAGIALQEYSVSEKKLVGERKVIFKGTPIKLTEAPHLYYINDVYYLLTAEGGTRYEHAATIARSSRIDGPYEVHPDNPILTAFHAPSHPLQKCGHASIVQTHTNEWYLAHLTGRPIHSSKESIFQQRGWCPLGRETAIQKLEWKDGWPYVVGGKEGLLEVEAPAMSVKEFSPTYHIVDEFKDSSLNRHFQTLRIPFTDQIGSVTENPHHLRLYGQESLTSKFTQAFVARRWQSFYFEAETAVSFFPKNFQQAAGLVNYYNTENWTALQVTYDDALGRILELSVCENLAFSQPLIKKIIIPDEIPYVYLKVTVQRETYTYSYSFDQQEWEKIDVPLESTHLSDDFIRGGGFFTGAFVGMQCQDTSGERLPADFKYFRYEETTE
In the case of B1, the temperature optimum [1] is reported as 35 °C, the pH optimum ([1]; 35° C.) is reported as ~7.5 pH and the “cleavage of cellobiose (CB-F17) in substrate cocktail” value [2] is reported as “no enzymatic cleavage of cellobiose”. The “cleavage of xylobiose (XB-F17) in substrate cocktail” value [3] was “conversion of xylobiose to xylose”.
